Patent US20220340646A1 (OSAKA CITY UNIVERSITY, published 2022)
Numbering of substitutions follows the chain as printed. Non-standard residues stand in square brackets, D forms with d. No end group written: not given here. pT = C[C@@H](OP(=O)(O)O)[C@H](N)C(=O)O; pS = N[C@@H](COP(=O)(O)O)C(=O)O

T1: pT212 tau peptide
T1 construct: Partial peptide of tau coated on the ELISA plate
T1 peptide: SRSR[pT]PSLPTP

T2: pS46 tau peptide
T2 construct: Partial peptide of tau coated on the ELISA plate
T2 peptide: GLKE[pS]P

T3: pT212/pS214 tau peptide
T3 peptide: SRSR[pT]P[pS]LPTP

T4: pS214 tau peptide
T4 peptide: SRSRTP[pS]LPTP

T5: pS199 tau peptide
T5 construct: Partial peptide of tau coated on the ELISA plate
T5 peptide: SGYS[pS]PGSPG

T6: pT217 tau peptide
T6 construct: Partial peptide of tau coated on the ELISA plate
T6 peptide: PSLP[pT]PPTR

T7: pS202 tau peptide
T7 construct: Partial peptide of tau coated on the ELISA plate
T7 peptide: SSPG[pS]SPGTPC

B1: Ta1505 (antibody, V domains shown)
VH: EVQLVESGGGLVQPKGSLKLSCAASGFAFNSFALNWVRQAPGKSLEWVVHIRSKTNNYATFYADSVKDRFTVSRDDSQSMVYLQMNNLKTEDTGIYYCVRRGPRDSWFGYWGQGTLVTVSA
VL: DILMTQTPLSLPVSLGDQASISCRSSQNIVHSNGNTYLEWYLQKPGQSPKVLIYTVSNRFSGVPDRFSGSGSGTDFTLKISRVEAEDLGVYYCFQGSHLPLTFGGGTKL
notes: also called Ta1505-2
B2: Ta1506 (antibody, V domains shown)
VH: EVHLVESGGGLVQPKGSLKLSCAASGFAFNSFAMNWVRQAPGKALDWIAHIRSKTNNYVTFYADSVKGRFSISRDDSQSMVYLQMNNLQTEDTGIYYCVRRGPRDSWFGYWGQGTLVTVSA
VL: B1 VL with D1G, I2V, T7I
notes: also called Ta15 Series
B3: Ta1509 (antibody, V domains shown)
VH: B2 VH with H3Q, A44G, T55S, G68D, S71I, V81I, Q89K, T93S
VL: B1 VL with I2V, T7S, S32T
notes: also called Ta15 Series
B4: Ta1508 (antibody, V domains shown)
VH: B2 VH with A44G
VL: B1 VL with D1V, I2V
notes: also called Ta15 Series
B5: Ta1507 (antibody, V domains shown)
VH: B1 VH with V2I, N30S, E46D, V49A, T55A, N57H, A59V
VL: B1 VL with I2V, M4L
notes: also called Ta15 Series
B6: Ta1501 (antibody, V domains shown)
VH: B1 VH with Q3H, G10E, L34M, A40T, S44G, E46N, V49A, V72I, S79N, V81L
VL: B1 VL with I2V, Q18H
notes: also called Ta15 Series
B7: Ta1502 (antibody, V domains shown)
VH: B1 VH with S79N
VL: B1 VL
notes: also called Ta15 Series

Target: T1, pT212 tau peptide
Test: peptide ELISA

binding result | Binder
no binding (tested: 1 µg/mL) | B1
no binding (tested: 1 µg/mL) | B2
no binding (tested: 1 µg/mL) | B3
no binding (tested: 1 µg/mL) | B4
no binding (tested: 1 µg/mL) | B5
no binding (tested: 1 µg/mL) | B6
no binding (tested: 1 µg/mL) | B7

Target: T2, pS46 tau peptide
Test: peptide ELISA

binding result | Binder
no binding (tested: 1 µg/mL) | B1
no binding (tested: 1 µg/mL) | B2
no binding (tested: 1 µg/mL) | B3
no binding (tested: 1 µg/mL) | B4
no binding (tested: 1 µg/mL) | B5
no binding (tested: 1 µg/mL) | B6
no binding (tested: 1 µg/mL) | B7

Target: T3, pT212/pS214 tau peptide
Test: peptide ELISA

binding result | Binder
no binding (tested: 1 µg/mL) | B1
no binding (tested: 1 µg/mL) | B2
no binding (tested: 1 µg/mL) | B3
no binding (tested: 1 µg/mL) | B4
no binding (tested: 1 µg/mL) | B5
no binding (tested: 1 µg/mL) | B6
no binding (tested: 1 µg/mL) | B7

Target: T4, pS214 tau peptide
Test: peptide ELISA

binding result | Binder
no binding (tested: 1 µg/mL) | B1
no binding (tested: 1 µg/mL) | B2
no binding (tested: 1 µg/mL) | B3
no binding (tested: 1 µg/mL) | B4
no binding (tested: 1 µg/mL) | B5
no binding (tested: 1 µg/mL) | B6
no binding (tested: 1 µg/mL) | B7

Target: T5, pS199 tau peptide
Test: peptide ELISA

binding result | Binder
no binding (tested: 1 µg/mL) | B1
no binding (tested: 1 µg/mL) | B2
no binding (tested: 1 µg/mL) | B3
no binding (tested: 1 µg/mL) | B4
no binding (tested: 1 µg/mL) | B5
no binding (tested: 1 µg/mL) | B6
no binding (tested: 1 µg/mL) | B7

Target: T6, pT217 tau peptide
Test: peptide ELISA

binding result | Binder
no binding (tested: 1 µg/mL) | B1
no binding (tested: 1 µg/mL) | B2
no binding (tested: 1 µg/mL) | B3
no binding (tested: 1 µg/mL) | B4
no binding (tested: 1 µg/mL) | B5
no binding (tested: 1 µg/mL) | B6
no binding (tested: 1 µg/mL) | B7

target: T8, pS400-BSA (phosphorylated as its name says (pS400); conjugated to BSA); test: peptide ELISA
T8 construct: BSA-conjugated tau peptide coated on the ELISA plate
T8 sequence (P02769 25-607 limits assumed): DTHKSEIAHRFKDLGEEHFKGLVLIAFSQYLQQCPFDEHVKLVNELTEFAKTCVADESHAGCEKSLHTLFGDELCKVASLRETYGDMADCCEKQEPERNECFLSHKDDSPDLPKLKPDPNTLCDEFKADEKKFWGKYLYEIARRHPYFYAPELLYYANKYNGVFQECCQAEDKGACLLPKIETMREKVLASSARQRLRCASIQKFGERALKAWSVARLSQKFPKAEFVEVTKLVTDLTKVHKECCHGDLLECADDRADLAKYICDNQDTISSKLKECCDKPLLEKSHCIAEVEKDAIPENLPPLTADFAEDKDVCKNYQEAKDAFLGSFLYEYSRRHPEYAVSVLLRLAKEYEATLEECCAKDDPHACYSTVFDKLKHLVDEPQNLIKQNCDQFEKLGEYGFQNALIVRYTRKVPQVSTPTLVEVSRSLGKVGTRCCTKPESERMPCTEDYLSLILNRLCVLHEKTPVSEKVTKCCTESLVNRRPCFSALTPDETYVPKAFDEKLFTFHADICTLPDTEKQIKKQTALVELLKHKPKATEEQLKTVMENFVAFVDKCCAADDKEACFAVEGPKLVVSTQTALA

binding result | Binder
no binding (tested: 1 µg/mL) | B1
no binding (tested: 1 µg/mL) | B2
no binding (tested: 1 µg/mL) | B3
no binding (tested: 1 µg/mL) | B4
no binding (tested: 1 µg/mL) | B5
no binding (tested: 1 µg/mL) | B6
no binding (tested: 1 µg/mL) | B7

Target: T7, pS202 tau peptide
Test: peptide ELISA

binding result | Binder
no binding (tested: 1 µg/mL) | B1
no binding (tested: 1 µg/mL) | B2
no binding (tested: 1 µg/mL) | B3
no binding (tested: 1 µg/mL) | B4
no binding (tested: 1 µg/mL) | B5
no binding (tested: 1 µg/mL) | B6
no binding (tested: 1 µg/mL) | B7

target: T9, pS412-BSA (phosphorylated as its name says (pS412); conjugated to BSA); test: peptide ELISA
T9 construct: BSA-conjugated tau peptide coated on the ELISA plate
T9 sequence (P02769 25-607 limits assumed): as above

binding result | Binder
no binding (tested: 1 µg/mL) | B1
no binding (tested: 1 µg/mL) | B2
no binding (tested: 1 µg/mL) | B3
no binding (tested: 1 µg/mL) | B4
no binding (tested: 1 µg/mL) | B5
no binding (tested: 1 µg/mL) | B6
no binding (tested: 1 µg/mL) | B7

target: pSer413(Im) peptide (human); test: SPR (Biacore 3000), antibody captured by anti-mouse antibody, peptide as analyte, single cycle kinetics
Sequence (peptide, as listed by the source): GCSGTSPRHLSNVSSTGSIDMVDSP

Kd | koff | kon | Binder
3.87 nM | 0.000499 s⁻¹ | 129000 M⁻¹ s⁻¹ | B1
9.75 nM | 0.00194 s⁻¹ | 199000 M⁻¹ s⁻¹ | B2
14.4 nM | 0.00125 s⁻¹ | 87100 M⁻¹ s⁻¹ | B3
6.76 nM | 0.00098 s⁻¹ | 145000 M⁻¹ s⁻¹ | B4
4.2 nM | 0.000533 s⁻¹ | 127000 M⁻¹ s⁻¹ | B5
18.6 nM | 0.00105 s⁻¹ | 56400 M⁻¹ s⁻¹ | B6
4.2 nM | 0.00047 s⁻¹ | 112000 M⁻¹ s⁻¹ | B7
